Data published in patent US20240327815A1.

Legend:
[1] = target: WT SARS-CoV-2 spike protein, plate-coated (MSD V-Plex) (SARS-CoV-2) (UniProt P0DTC2); assay: MSD competition vs labelled ACE2
[2] = target: full length wild type SARS-CoV-2 spike glycoprotein on pseudotyped lentivirus (SARS-CoV-2) (UniProt P0DTC2); assay: cell-based or functional assay
[3] = target: SARS-CoV-2 spike RBD-His (R&D Systems, cat #10500-CV) (SARS-CoV-2) (UniProt P0DTC2); assay: SPR
[4] = target: SARS-CoV-2 spike RBD-His (R&D Systems, cat #10500-CV) (SARS-CoV-2) (UniProt P0DTC2); assay: SPR, 1:1 model

Bamlanivimab + Etesevimab
IC50 [1]: 0.07 nM

REGEN-COV
IC50 [1]: 0.07 nM | Pseudovirus Neutralization (IC50, nM) [2]: 0.09 nM | Pseudovirus neutralization IC50 [2]: 0.09 nM

REGN10933 (Casirivimab) (antibody)
Kd [3]: 0.0708 nM | Kd [4]: 0.0708 nM

REGN10987 (Imdevimab) (antibody)
Kd [3]: 0.0869 nM | Kd [4]: 0.0869 nM

Sotrovimab (antibody)
Pseudovirus Neutralization (IC50, nM) [2]: 0.11 nM
